# Article PMC4365997 (Journal of cell science, 2008)
# T1: recombinant Rab11a (UniProt P62491 1-216)
# T1 sequence (looked up): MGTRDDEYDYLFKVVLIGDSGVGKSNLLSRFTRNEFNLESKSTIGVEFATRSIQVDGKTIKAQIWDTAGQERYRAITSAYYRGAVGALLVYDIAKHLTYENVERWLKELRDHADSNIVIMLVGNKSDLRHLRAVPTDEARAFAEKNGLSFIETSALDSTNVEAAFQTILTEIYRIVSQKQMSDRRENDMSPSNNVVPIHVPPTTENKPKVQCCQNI
# B1: Rip11/FIP5(490-652) (domain or fragment, UniProt Q9BXF6 490-652, looked up)
# chain: ILGASPHHSSSGEEKAKSSWFGLREAKDPTQKPSPHPVKPLSAAPVEGSPDRKQSRSSLSIALSSGLEKLKTVTSGSIQPVTQAPQAGQMVDTKRLKDSAVLDQSAKYYHLTHDELISLLLQRERELSQRDEHVQELESYIDRLLVRIMETSPTLLQIPPGPP
# Molecular target: T1, recombinant Rab11a
# Test: pull-down
binder,measurement,value
B1,binding result,binds
